Reference: US8980604B2 (priority 2009, dated 2015)

Tests used:
[1] = target: T1, E. coli glycerol dehydrogenase (GlyDH, GldA), native (wild type) (Escherichia coli, UniProt P0A9S5); test: Kinetics toward NADH and inhibition by NAD+, crude extract, native GlyDH
T1 sequence (P0A9S5 1-367): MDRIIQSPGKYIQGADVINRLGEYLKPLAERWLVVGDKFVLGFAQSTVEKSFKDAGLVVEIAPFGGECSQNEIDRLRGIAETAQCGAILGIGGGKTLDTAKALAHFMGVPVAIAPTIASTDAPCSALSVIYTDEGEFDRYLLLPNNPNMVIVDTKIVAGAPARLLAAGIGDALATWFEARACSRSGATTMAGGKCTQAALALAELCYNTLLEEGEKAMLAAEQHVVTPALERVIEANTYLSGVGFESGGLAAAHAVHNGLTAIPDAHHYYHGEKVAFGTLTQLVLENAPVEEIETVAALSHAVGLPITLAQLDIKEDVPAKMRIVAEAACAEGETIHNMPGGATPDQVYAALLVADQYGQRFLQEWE

[2] = target: T1, E. coli glycerol dehydrogenase (GlyDH, GldA), native (wild type); test: Inhibition by product 1,2-propanediol, native GlyDH; format: biochemical; design: made in house; host or cells: E. coli BL21 star (DE3) ΔgldA::Cm with pETTOPO-gldA; conditions: read-out: loss of maximum activity
Method: (§1) The 3 strains E. coli MG1655 pME101-VB01-gldA, E. coli MG1655 pME101-VB01-gldA*(A160T) and E. coli MG1655 pME101-VB01-gldA*(T120N) were cultivated in minimal medium with 10 g/l glucose as carbon source in 500 ml baffled Erlenmeyer flasks with 50 ml culture medium. The culture was carried out on a rotary shaker at 200 rpm. The temperature of the culture was maintained at 37° C. and the pH of the medium was buffered with MOPS (initial pH 6.8). Expression of the gene on the pME101-VB01 plasmid was induced by adding 100 μM IPTG at the beginning of the culture. The cultures were stopped at mid-exponential phase. The biomass was harvested by centrifugation, the supernatant was discarded and the pellet was stored at −20° C. before use.
(§2) Between 55-65 mg of E. coli biomass were resuspended in 9 ml of 100 mM Potassium phosphate pH 7, 0.1 mM DTT, 0.1 mM pyridoxal 5′-phosphate (PLP) and a protease inhibitor cocktail. Cells were sonicated on ice (Branson sonifier, 70 W) during four cycles of 30 sec with 30 sec intervals. After sonication, cells debris were removed by centrifugation at 12000 g for 30 min at 4° C. The crude extracts were desalted using an Econo-Pac 10 DG column (BioRad).

[3] = target: T2, E. coli glycerol dehydrogenase (GlyDH, GldA) mutant GlyDH*(T120N) (Escherichia coli, UniProt P0A9S5, T120N); test: Inhibition by substrate hydroxyacetone (Dixon plot), GlyDH*(T120N); format: biochemical; design: made in house; host or cells: E. coli BL21 star (DE3) ΔgldA::Cm with pETTOPO-gldA*(T120N); conditions: crude extract
T2 sequence (P0A9S5 1-367 T120N): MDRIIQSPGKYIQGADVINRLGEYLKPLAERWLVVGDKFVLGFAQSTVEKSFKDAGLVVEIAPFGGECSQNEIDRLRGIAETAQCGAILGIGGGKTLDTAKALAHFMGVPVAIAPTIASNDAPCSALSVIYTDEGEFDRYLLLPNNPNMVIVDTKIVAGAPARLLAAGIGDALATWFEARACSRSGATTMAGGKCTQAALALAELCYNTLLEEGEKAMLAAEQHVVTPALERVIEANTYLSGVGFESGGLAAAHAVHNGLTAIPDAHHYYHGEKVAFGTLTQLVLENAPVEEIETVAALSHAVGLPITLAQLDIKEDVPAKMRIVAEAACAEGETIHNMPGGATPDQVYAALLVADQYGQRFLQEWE
Method: as §1, §2

[4] = target: T3, E. coli glycerol dehydrogenase (GlyDH, GldA) mutant GlyDH*(A160T) (Escherichia coli, UniProt P0A9S5, A160T); test: Inhibition by substrate hydroxyacetone (Dixon plot), GlyDH*(A160T); format: biochemical; design: made in house; host or cells: E. coli BL21 star (DE3) ΔgldA::Cm with pETTOPO-gldA*(A160T); conditions: crude extract
T3 sequence (P0A9S5 1-367 A160T): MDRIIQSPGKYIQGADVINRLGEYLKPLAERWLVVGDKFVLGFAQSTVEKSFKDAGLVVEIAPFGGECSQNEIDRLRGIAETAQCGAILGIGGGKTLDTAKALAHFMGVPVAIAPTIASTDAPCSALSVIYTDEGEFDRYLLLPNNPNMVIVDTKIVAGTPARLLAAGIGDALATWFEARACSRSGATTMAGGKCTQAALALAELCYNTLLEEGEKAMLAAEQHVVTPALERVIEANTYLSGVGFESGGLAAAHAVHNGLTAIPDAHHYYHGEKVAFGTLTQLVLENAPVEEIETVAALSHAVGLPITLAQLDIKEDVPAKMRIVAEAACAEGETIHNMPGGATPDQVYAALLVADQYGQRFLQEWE
Method: as §1, §2

[5] = target: GlyDH (glycerol dehydrogenase) of Nishise et al, 1984 (Cellulomonas); conditions: read-out: Ki (hydroxyacetone), literature; cited from earlier work
[6] = tested on: Glycerol dehydrogenase (GlyDH); format: biochemical, E. coli; conditions: crude extract; hydroxyacetone as substrate
Method: (§3) Glycerol dehydrogenase activity was assayed by measuring the initial rate of NADH oxidation with a spectrophotometer at a wavelength of 340 nm and at a constant temperature of 30° C. […] Control assay (blank), lacking the substrate was run in parallel and the value measured for the control was subtracted to the value measured for the assay to take into account non-specific oxidation of NADH.
(§4) One unit of enzyme activity was defined as the amount of enzyme that consumed 1 μmol substrate per minute under the conditions of the assay. Specific enzyme activity was expressed as units per mg of protein.
(§5) Enzyme kinetics with regards to NADH were realised with increasing concentration of NADH between 0.025 and 0.4 mM.

[7] = substrate: CC(=O)CO; test: purified protein, by the assay type; conditions: other: purified enzyme, pH 6.5, 30° C., 0.1 mM NADH, hydroxyacetone 0.1 to 15 mM
[8] = tested on: Glycerol dehydrogenase (GlyDH); format: biochemical, E. coli; conditions: for Specific activity, Glycolaldehyde: substrate glycolaldehyde; for Specific activity, Glycolaldehyde / Specific activity, Hydroxyacetone / Specific activity, Methyl glyoxal: purified enzyme, pH 6.5, 30° C.; for Specific activity, Hydroxyacetone: substrate hydroxyacetone; for Specific activity, Methyl glyoxal: substrate methyl glyoxal
Method: The oxidation reaction was carried out in quartz cuvette cells filled with 1 ml of the mixture: 100 mM MES buffer pH 6.5 with 30 mM of ammonium sulphate, 0.1 mM of iron sulphate, 0.1 mM of NADH and around 0.5 μg of purified proteins. […] In all reactions, non enzymatic rates were subtracted from the observed initial reaction rates. Enzyme activities are reported as μmoles of substrate/min/mg of […] and represents averages for at least three purified enzyme preparations.
The purification process designed to purify the glycerol dehydrogenase overexpressed in E. coli is composed of two steps. […] Cell pellets were resuspended in 3 ml of 50 mM HEPES buffer pH 7.5 containing protease inhibitor cocktail (Roche) and homogenized by sonication (at 0° C., under aerobic conditions, in four cycles of 30 s with 2 minutes intervals between each cycle). Cells debris were eliminated by centrifugation (5 min 12000 g) and nucleic acids in cell homogenate were precipitated by a streptomycin sulphate treatment (13.3 mg/ml final concentration, 15 minutes, 0° C.). The streptomycin sulphate treated cell homogenate was harvested by centrifugation (5 min 12000 g), and contaminant proteins of the supernatant were eliminated by ammonium sulphate precipitation at a saturated concentration of 20%, at 4° C., with stirring over one hour. The precipitate was then removed by centrifugation (20 min, 8600 g, 4° C.) and discarded. A further portion of ammonium sulphate at a saturated concentration of 30% was added to the supernatant as previously and then centrifuged 30 minutes at 8600 g 4° C. collecting the precipitate. The precipitate was dissolved in 3 ml of 50 mM Hepes Buffer pH 7.5 with 1M ammonium sulphate before loading 2.5 ml sample onto a hydrophobic interaction chromatography column (Hitrap phenyl sepharose, GEhealthcare) connected to an AKTA purifier system and equilibrated with 50 mM Hepes Buffer pH 7.5 containing 1M ammonium sulphate. After washing with 20 ml of the same buffer, proteins were eluted with a 20 ml linear gradient of 50 mM Hepes Buffer pH 7.5 from 1 M to 0 M of ammonium sulphate. […] The protein concentration and purity were respectively determined with the Bradford reagent and with sodium dodecylsulfate polyacrylamide gel electrophoresis (FIG. 3).
The kinetic parameters were determined with Sigma Plot (Systat Software Inc, San Jose Calif.) by fitting to the Michaelis Menten equation using a non linear regression.

[9] = target: T4, Glycerol dehydrogenase (GlyDH) (Escherichia coli, UniProt P0A9S5, A160T); format: biochemical, E. coli; conditions: NAD+ 0.6-1.2-2.5-4 mM
T4 construct: made in house; host or cells: E. coli MG1655, plasmid pME101-VB01-gldA; crude extract, not purified
Method: as §3, §4, §5

## NC(=O)c1ccc[n+]([C@@H]2O[C@H](COP(=O)([O-])OP(=O)(O)OC[C@H]3O[C@@H](n4cnc5c(N)ncnc54)[C@H](O)[C@@H]3O)[C@@H](O)[C@H]2O)c1 [NAD+]
[1]
  Ki: 0.43 mM

## CC(O)CO (centres unmarked) [1,2-propanediol]
[2]
  inhibition at 40000 µM: 50%
  inhibition at 100000 µM: 65%

## CC(=O)CO [Hydroxyacetone, hydroxyacetone]
[3]
  Ki Hydroxyacetone increase by a factor (vs native): more than 10
[4]
  Ki Hydroxyacetone increase by a factor (vs native): more than 10
[5]
  Ki: 11.6 mM

B1: E. coli glycerol dehydrogenase (GlyDH, GldA), native (wild type) (Escherichia coli K-12) (protein)
chain: MDRIIQSPGKYIQGADVINRLGEYLKPLAERWLVVGDKFVLGFAQSTVEKSFKDAGLVVEIAPFGGECSQNEIDRLRGIAETAQCGAILGIGGGKTLDTAKALAHFMGVPVAIAPTIASTDAPCSALSVIYTDEGEFDRYLLLPNNPNMVIVDTKIVAGAPARLLAAGIGDALATWFEARACSRSGATTMAGGKCTQAALALAELCYNTLLEEGEKAMLAAEQHVVTPALERVIEANTYLSGVGFESGGLAAAHAVHNGLTAIPDAHHYYHGEKVAFGTLTQLVLENAPVEEIETVAALSHAVGLPITLAQLDIKEDVPAKMRIVAEAACAEGETIHNMPGGATPDQVYAALLVADQYGQRFLQEWE
[6]
  Specific activity: 1240 ± 77 nmol/min/mg
[7]
  Km: 70 ± 20 µM
[8]
  Specific activity, Glycolaldehyde: 148.89 +/− 19.36 U/mg
  Specific activity, Hydroxyacetone: 36.3 +/− 0.88 U/mg
  Specific activity, Methyl glyoxal: 57.77 +/− 3.81 U/mg

B2: E. coli glycerol dehydrogenase (GlyDH, GldA) mutant GlyDH*(A160T) (Escherichia coli K-12; A160T) (protein)
chain: MDRIIQSPGKYIQGADVINRLGEYLKPLAERWLVVGDKFVLGFAQSTVEKSFKDAGLVVEIAPFGGECSQNEIDRLRGIAETAQCGAILGIGGGKTLDTAKALAHFMGVPVAIAPTIASTDAPCSALSVIYTDEGEFDRYLLLPNNPNMVIVDTKIVAGTPARLLAAGIGDALATWFEARACSRSGATTMAGGKCTQAALALAELCYNTLLEEGEKAMLAAEQHVVTPALERVIEANTYLSGVGFESGGLAAAHAVHNGLTAIPDAHHYYHGEKVAFGTLTQLVLENAPVEEIETVAALSHAVGLPITLAQLDIKEDVPAKMRIVAEAACAEGETIHNMPGGATPDQVYAALLVADQYGQRFLQEWE
[6]
  Specific activity: 1140 ± 42 nmol/min/mg
[9]
  Inhibition by NAD+ at the concentrations used: almost no inhibition
[8]
  Specific activity, Glycolaldehyde: 167.33 +/− 6.03 U/mg
  Specific activity, Hydroxyacetone: 40.5 +/− 0.85 U/mg
  Specific activity, Methyl glyoxal: 58.27 +/− 2.42 U/mg
[8]; three substrates, pH 6.5
  Kinetics compared with native enzyme: no significant differences
